Data as given in patent US20090061015.
Substitutions are numbered along the chain they refer to. Numbers in names are those of the source.

Key:
[1] = molecular target: T1, recombinant human AceCS2^myc-His (residues 38-689, C-terminal myc-His tag, purified from E. coli), acetylated at Lys642 (UniProt Q9NUB1)
T1 sequence: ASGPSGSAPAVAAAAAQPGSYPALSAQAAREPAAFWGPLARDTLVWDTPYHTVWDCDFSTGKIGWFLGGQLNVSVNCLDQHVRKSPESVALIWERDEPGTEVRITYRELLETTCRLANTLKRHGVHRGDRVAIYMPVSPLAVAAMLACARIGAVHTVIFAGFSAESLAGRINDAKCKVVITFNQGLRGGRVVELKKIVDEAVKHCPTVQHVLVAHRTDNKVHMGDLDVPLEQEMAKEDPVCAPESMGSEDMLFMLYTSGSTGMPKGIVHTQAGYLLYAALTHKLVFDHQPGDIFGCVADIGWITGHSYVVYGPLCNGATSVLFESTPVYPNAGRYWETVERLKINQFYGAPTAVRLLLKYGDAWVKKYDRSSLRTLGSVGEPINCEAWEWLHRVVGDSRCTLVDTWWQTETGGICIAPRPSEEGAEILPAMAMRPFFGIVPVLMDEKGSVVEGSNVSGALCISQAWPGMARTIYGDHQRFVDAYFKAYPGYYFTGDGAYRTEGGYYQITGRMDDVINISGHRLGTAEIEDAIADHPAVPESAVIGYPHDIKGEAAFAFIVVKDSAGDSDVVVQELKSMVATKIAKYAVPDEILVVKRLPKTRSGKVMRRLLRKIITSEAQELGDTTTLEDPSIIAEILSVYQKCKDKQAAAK

[2] = molecular target: T2, recombinant human AceCS2^myc-His (residues 38-689, C-terminal myc-His tag, purified from E. coli), acetylated at Lys642, Q9NUB1
T2 chain: T1 sequence

Molecule: recombinant human SIRT5 lacking the first 11 residues (residues 12-310, myc-His tagged)
- in vitro deacetylation of AceCS2 (immunoblot with acetyl-lysine-specific antibodies) [1]: both recombinant SIRT5 proteins failed to do so

Molecule: recombinant human SIRT5 lacking the first 38 residues (residues 39-310, myc-His tagged)
- in vitro deacetylation of AceCS2 (immunoblot with acetyl-lysine-specific antibodies) [1]: both recombinant SIRT5 proteins failed to do so

B1: Flag-tagged SIRT5 (SIRT5^Flag, expressed in HEK293 or COS-1 cells) (protein)
chain: SSSMADFRKFFAKAKHIVIISGAGVSAESGVPTFRGAGGYWRKWQAQDLATPLAFAHNPSRVWEFYHYRREVMGSKEPNAGHRAIAECETRLGKQGRRVVVITQNIDELHRKAGTKNLLEIHGSLFKTRCTSCGVVAENYKSPICPALSGKGAPEPGTQDASIPVEKLPRCEEAGCGGLLRPHVVWFGENLDPAILEEVDRELAHCDLCLVVGTSSVVYPAAMFAPQVAARGVPVAEFNTETTPATNRFRFHFQGPCGTTLPEALACHENETVS
- in vitro deacetylation of AceCS2 (immunoblot with acetyl-lysine-specific antibodies) [2]: it failed to deacetylate AceCS2

B2: recombinant human SIRT3 (residues 102-399, myc-His tagged, purified from E. coli) (protein)
chain: ISFSVGASSVVGSGGSSDKGKLSLQDVAELIRARACQRVVVMVGAGISTPSGIPDFRSPGSGLYSNLQQYDLPYPEAIFELPFFFHNPKPFFTLAKELYPGNYKPNVTHYFLRLLHDKGLLLRLYTQNIDGLERVSGIPASKLVEAHGTFASATCTVCQRPFPGEDIRADVMADRVPRCPVCTGVVKPDIVFFGEPLPQRFLLHVVDFPMADLLLILGTSLEVEPFASLTEAVRSSVPRLLINRDLVGPLAWHPRSRDVAQLGDVVHGVESLVELLGWTEEMRDLVQRETGKLDGPDK
- acetyl-CoA synthetase specific activity of AceCS2 after incubation with SIRT3 [2]: deacetylation by SIRT3 was associated with a significant increase in enzymatic activity
- in vitro deacetylation of AceCS2 (immunoblot with acetyl-lysine-specific antibodies) [2]: recombinant SIRT3 effectively deacetylated AceCS2
- in vitro deacetylation of hyperacetylated AceCS2 with NAD^+ [2]: This treatment led to a complete deacetylation of AceCS2
- time course of AceCS2 deacetylation and of its enzymatic activity [2]: incubation of AceCS2 with SIRT3 and NAD^+ caused a progressive deacetylation of AceCS2 over time

B3: Flag-tagged SIRT3 (SIRT3^Flag, expressed in HEK293 or COS-1 cells) (protein)
chain: B2 chain
- in vitro deacetylation of AceCS2 (immunoblot with acetyl-lysine-specific antibodies) [2]: immunoprecipitated Flag-tagged SIRT3 deacetylated AceCS2 in a NAD^+-dependent manner

B4: recombinant human SIRT3-H248Y (residues 102-399, myc-His tagged, purified from E. coli), catalytically inactive mutant (protein)
chain: B2 chain with H147Y
- in vitro deacetylation of AceCS2 (immunoblot with acetyl-lysine-specific antibodies) [2]: the catalytically inactive SIRT3-H248Y mutant did not deacetylate AceCS2, despite the presence of NAD^+
- in vitro deacetylation of hyperacetylated AceCS2 with NAD^+ [2]: No deacetylation of AceCS2 was observed when NAD^+ was omitted from the reaction, or when a catalytically inactive SIRT3 mutant (H248Y) was used
- time course of AceCS2 deacetylation [2]: could not be observed with the inactive SIRT3-H248Y mutant

B5: Flag-tagged SIRT4 (protein)
chain: IGLFVPASPPLDPEKVKELQRFITLSKRLLVMTGAGISTESGIPDYRSEKVGLYARTDRRPIQHGDFVRSAPIRQRYWARNFVGWPQFSSHQPNPAHWALSTWEKLGKLYWLVTQNVDALHTKAGSRRLTELHGCMDRVLCLDCGEQTPRGVLQERFQVLNPTWSAEAHGLAPDGDVFLSEEQVRSFQVPTCVQCGGHLKPDVVFFGDTVNPDKVDFVHKRVKEADSLLVVGSSLQVYSGYRFILTAWEKKLPIAILNIGPTRSDDLACLKLNSRCGELLPLIDPC
- in vitro deacetylation of AceCS2 [2]: did not deacetylate AceCS2 (data not shown)
